Source: patent publication US20180172684A1

How the values were obtained:
[1] = target: mycoplasma pneumonia P30 (purified protein P30Ag produced by expressing amino acids 96-274 with Escherichia coli) (Mycoplasma pneumoniae) (UniProt P75330); test: immunochromatography sandwich, P30(a)-gold label and P30(a) detection line, P30Ag 10 pg/mL, no peptide
[2] = target: mycoplasma pneumonia P30 (purified protein P30Ag produced by expressing amino acids 96-274 with Escherichia coli) (Mycoplasma pneumoniae) (UniProt P75330); test: ELISA, P30Ag coated at 4 ng/mL, antibody 5 ug/mL, anti-mouse IgG-peroxidase
[3] = target: P30 protein of Mycoplasma pneumoniae as present in Mycoplasma pneumoniae analytes (deactivated Mycoplasma pneumoniae Antigen (FH), Meridian; pharyngeal swabs of infected subjects) (Mycoplasma pneumoniae) (UniProt P75330); test: immunochromatography sandwich (Ex. 2), label P30(a), detection P30(a); pharyngeal swab Subject 1; Triton X-100/Tween 20 diluent
[4] = target: P30 protein of Mycoplasma pneumoniae as present in Mycoplasma pneumoniae analytes (deactivated Mycoplasma pneumoniae Antigen (FH), Meridian; pharyngeal swabs of infected subjects) (Mycoplasma pneumoniae) (UniProt P75330); test: immunochromatography sandwich (Ex. 1), label P30(a), detection P30(a); deactivated Mycoplasma pneumoniae (FH); NP-40/MN-811 diluent
[5] = target: full-length protein mycoplasma pneumonia P30 (amino acids 1-274; SEQ ID NO: 1) (Mycoplasma pneumoniae) (UniProt P75330); test: ELISA, full-length P30 coated, 5 ug/mL P30(a), no peptide (0 point of the peptide 2 series)
[6] = target: P30 protein of Mycoplasma pneumoniae as present in Mycoplasma pneumoniae analytes (deactivated Mycoplasma pneumoniae Antigen (FH), Meridian; pharyngeal swabs of infected subjects) (Mycoplasma pneumoniae) (UniProt P75330); test: immunochromatography sandwich (Ex. 1), label P30(a), detection P30(a); pharyngeal swab Subject 2, diluted 20 times
[7] = target: P30 protein of Mycoplasma pneumoniae as present in Mycoplasma pneumoniae analytes (deactivated Mycoplasma pneumoniae Antigen (FH), Meridian; pharyngeal swabs of infected subjects) (Mycoplasma pneumoniae) (UniProt P75330); test: immunochromatography sandwich (Ex. 2), label P30(a), detection P30(a); pharyngeal swab Subject 2; Triton X-100/Tween 20 diluent
[8] = target: P30 protein of Mycoplasma pneumoniae as present in Mycoplasma pneumoniae analytes (deactivated Mycoplasma pneumoniae Antigen (FH), Meridian; pharyngeal swabs of infected subjects) (Mycoplasma pneumoniae) (UniProt P75330); test: immunochromatography sandwich (Ex. 1), label P30(a), detection P30(a); pharyngeal swab Subject 1, diluted 20 times
[9] = target: P30 protein of Mycoplasma pneumoniae as present in Mycoplasma pneumoniae analytes (deactivated Mycoplasma pneumoniae Antigen (FH), Meridian; pharyngeal swabs of infected subjects) (Mycoplasma pneumoniae) (UniProt P75330); test: immunochromatography sandwich (Ex. 2), label P30(a), detection P30(a); deactivated Mycoplasma pneumoniae (FH); Triton X-100/Tween 20 diluent
[10] = target: full-length protein mycoplasma pneumonia P30 (amino acids 1-274; SEQ ID NO: 1) (Mycoplasma pneumoniae) (UniProt P75330); test: ELISA, full-length P30 coated, 5 ug/mL P30(a), no peptide (0 point of the peptide 1 series)
[11] = target: mycoplasma pneumonia P30 (purified protein P30Ag produced by expressing amino acids 96-274 with Escherichia coli) (Mycoplasma pneumoniae) (UniProt P75330); test: immunochromatography sandwich (Ex. 3), label P30(a), detection P30(a); analyte P30Ag; Triton X-100/Tween 20 diluent
[12] = target: antibody P30(a) (Fucal Research product Mp-P30-3-AB); test: competitive inhibition ELISA, full-length P30 coated, 5 ug/mL P30(a) + peptide 2 at x160 the antibody concentration
[13] = target: antibody P30(b) (Fucal Research product Mp-P30-9-AB); test: competitive inhibition ELISA, full-length P30 coated, 5 ug/mL P30(b) + peptide 2 at x1 the antibody concentration
[14] = target: antibody P30(a) (Fucal Research product Mp-P30-3-AB); test: competitive inhibition ELISA, full-length P30 coated, 5 ug/mL P30(a) + peptide 2 at x80 the antibody concentration
[15] = target: antibody P30(a) (Fucal Research product Mp-P30-3-AB); test: competitive inhibition ELISA, full-length P30 coated, 5 ug/mL P30(a) + peptide 2 at x20 the antibody concentration
[16] = target: antibody P30(b) (Fucal Research product Mp-P30-9-AB); test: competitive inhibition ELISA, full-length P30 coated, 5 ug/mL P30(b) + peptide 2 at x20 the antibody concentration
[17] = target: antibody P30(b) (Fucal Research product Mp-P30-9-AB); test: competitive inhibition ELISA, full-length P30 coated, 5 ug/mL P30(b) + peptide 2 at x640 the antibody concentration
[18] = target: antibody P30(b) (Fucal Research product Mp-P30-9-AB); test: competitive inhibition ELISA, full-length P30 coated, 5 ug/mL P30(b) + peptide 2 at x80 the antibody concentration
[19] = target: antibody P30(b) (Fucal Research product Mp-P30-9-AB); test: competitive inhibition ELISA, full-length P30 coated, 5 ug/mL P30(b) + peptide 2 at x10 the antibody concentration
[20] = target: antibody P30(b) (Fucal Research product Mp-P30-9-AB); test: immunochromatography competition, 400 ng peptide 2 developed with P30Ag 10 pg/mL, P30(b) label and detection
[21] = target: antibody P30(a) (Fucal Research product Mp-P30-3-AB); test: competitive inhibition ELISA, full-length P30 coated at 4 ng/mL, 5 ug/mL P30(a) + peptide 2 at 40 times the antibody amount
[22] = target: antibody P30(a) (Fucal Research product Mp-P30-3-AB); test: competitive inhibition ELISA, full-length P30 coated, 5 ug/mL P30(a) + peptide 2 at x10 the antibody concentration
[23] = target: antibody P30(b) (Fucal Research product Mp-P30-9-AB); test: competitive inhibition ELISA, full-length P30 coated, 5 ug/mL P30(b) + peptide 2 at x160 the antibody concentration
[24] = target: antibody P30(a) (Fucal Research product Mp-P30-3-AB); test: immunochromatography competition, 400 ng peptide 2 developed with P30Ag 10 pg/mL, P30(a) label and detection
[25] = target: antibody P30(a) (Fucal Research product Mp-P30-3-AB); test: competitive inhibition ELISA, full-length P30 coated, 5 ug/mL P30(a) + peptide 2 at x640 the antibody concentration
[26] = target: antibody P30(a) (Fucal Research product Mp-P30-3-AB); test: competitive inhibition ELISA, full-length P30 coated, 5 ug/mL P30(a) + peptide 2 at x320 the antibody concentration
[27] = target: antibody P30(a) (Fucal Research product Mp-P30-3-AB); test: competitive inhibition ELISA, full-length P30 coated, 5 ug/mL P30(a) + peptide 2 at x1 the antibody concentration
[28] = target: antibody P30(b) (Fucal Research product Mp-P30-9-AB); test: competitive inhibition ELISA, full-length P30 coated at 10 ng/mL, 5 ug/mL P30(b) + peptide 2 at 40 times the antibody amount
[29] = target: antibody P30(a) (Fucal Research product Mp-P30-3-AB); test: competitive inhibition ELISA, full-length P30 coated, 5 ug/mL P30(a) + peptide 2 at x40 the antibody concentration
[30] = target: antibody P30(b) (Fucal Research product Mp-P30-9-AB); test: competitive inhibition ELISA, full-length P30 coated, 5 ug/mL P30(b) + peptide 2 at x320 the antibody concentration
[31] = target: antibody P30(b) (Fucal Research product Mp-P30-9-AB); test: competitive inhibition ELISA, full-length P30 coated, 5 ug/mL P30(b) + peptide 2 at x40 the antibody concentration

“antibody P30(a) (Fucal Research product Mp-P30-3-AB)” showed a Color intensity after 15 min [1] of 251 mAbs, an absorbance at 450 nm after subtracting the blank [2] of 0.403 Abs and a Color intensity (mAbs) [3] of 117 mAbs. It also gave a Color intensity (mAbs) [4] of 273 mAbs, a Color intensity (Abs) [5] of 0.411 Abs and a Color intensity (mAbs) [6] of 28.7 mAbs. For the same molecule, the Color intensity (mAbs) [7] was 51.7 mAbs, the Color intensity (mAbs) [8] was 41.8 mAbs and the Color intensity (mAbs) [9] was 490 mAbs. For the same molecule, the Color intensity (Abs) [10] was 0.411 Abs and the Color intensity (mAbs) [11] was 180 mAbs.

With PGMAPRPGFPPQPGMAPR [Peptide 2 (SEQ ID NO: 7: …)] the Color intensity (Abs) [12] was 0.172 Abs, the Percentage reduction of color intensity (%) [12] was 58% and the Color intensity (Abs) [13] was 0.199 Abs. The Percentage reduction of color intensity (%) [13] was 4%, the Color intensity (Abs) [14] was 0.199 Abs and the Percentage reduction of color intensity (%) [14] was 52%. For the same molecule, the Color intensity (Abs) [15] was 0.29 Abs, the Percentage reduction of color intensity (%) [15] was 29% and the Color intensity (Abs) [16] was 0.186 Abs. The Percentage reduction of color intensity (%) [16] was 11%, the Color intensity (Abs) [17] was 0.114 Abs and the Percentage reduction of color intensity (%) [17] was 45%. The Color intensity (Abs) [18] was 0.133 Abs, the Percentage reduction of color intensity (%) [18] was 36% and the Color intensity (Abs) [19] was 0.184 Abs. For the same molecule, the Percentage reduction of color intensity (%) [19] was 12%, the Color intensity after 15 min [20] was 31.3 mAbs and the percentage reduction of absorbance [21] was over 30%. For the same molecule, the Color intensity (Abs) [22] was 0.341 Abs, the Percentage reduction of color intensity (%) [22] was 17% and the Color intensity (Abs) [23] was 0.125 Abs. The Percentage reduction of color intensity (%) [23] was 40%, the Color intensity after 15 min [24] was 96.7 mAbs and the Color intensity (Abs) [25] was 0.18 Abs. For the same molecule, the Percentage reduction of color intensity (%) [25] was 56%, the Color intensity (Abs) [26] was 0.16 Abs and the Percentage reduction of color intensity (%) [26] was 61%. It also gave a Color intensity (Abs) [27] of 0.401 Abs, a Percentage reduction of color intensity (%) [27] of 2% and a percentage reduction of absorbance [28] of 22%. For the same molecule, the Color intensity (Abs) [29] was 0.26 Abs, the Percentage reduction of color intensity (%) [29] was 37% and the Color intensity (Abs) [30] was 0.11 Abs. The Percentage reduction of color intensity (%) [30] was 47%, the Color intensity (Abs) [31] was 0.163 Abs and the Percentage reduction of color intensity (%) [31] was 22%.
